Data published in a protein production outcome set (Wang et al. 2014).

Assay: label from the status in PepcDB records
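Note: failed if final PepcDB status was selected cloned or expressed and not failed if soluble or beyond.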

Row | Sequence | protein production
1 | MSRSAFTALLLSCVLLALSMPARADDLPYRFGLGKADITGEAAEVGMMGYSSLEQKTAGIHMRQWARAFVIEEAASGRRLVYVNTDLGMIFQAVHLKVLARLKAKYPGVYDENNVMLAATHTHSGPGGFSHYAMYNLSVLGFQEKTFNAIVDGIVRSIERAQARLQPGRLFYGSGELRNANRNRSLLSHLKNPDIVGYEDGIDPQMSVLSFVDANGELAGAISWFPVHSTSMTNANHLISPDNKGYASYHWEHDVSRKSGFVAAFAQTNAGNLSPNLNLKPGSGPFDNEFDNTREIGLRQFAKAYEIAGQAQEEVLGELDSRFRFVDFTRLPIRPEFTDGQPRQLCTAAIGTSLAAGSTEDGPGPLGLEEGNNPFLSALGGLLTGVPPQELVQCQAEKTILADTGNKKPYPWTPTVLPIQMFRIGQLELLGAPAEFTVMAGVRIRRAVQAASEAAGIRHVVFNGYANAYASYVTTREEYAAQEYEGGSTLYGPWTQAAYQQLFVDMAVALRERLPVETSAIAPDLSCCQMNFQTGVVADDPYIGKSFGDVLQQPRESYRIGDKVTVAFVTGHPKNDLRTEKTFLEVVNIGKDGKQTPETVATDNDWDTQYRWERVGISASKATISWSIPPGTEPGHYYIRHYGNAKNFWTQKISEIGGSTRSFEVLGTTP | failed
2 | MRNPNDVFHLAIPARDLDEAYDFYVTKLGCKLARRYPDRITLDFFGDQLVCHLSDRWDREVSMYPRHFGITFRDKKHFDNLYKLAKQRGIPFYHDLSRRFEGLIEEHETFFLIDPSNNLLEFKYYFDDRMMY | not failed
3 | MQCPIEDRLAIQDLMIAYAHAVDTVSDIDAVLDVFTEDAVFDLSGIGLTPQVGHAGIREFFTNVFANMSHHAHYLTNFAVTGYEGDTASMRAYVIGMGVGKDGRAVTVNGRYFFEVRRTEKGWKATRYTMDFLMPLSGTLDNAK | not failed
4 | MEIRNVKGTKDYLPEEQVLRSKIKRACEDTFERYGCKPLETPTLNMYELMSYKYGGGDEILKEIYTLQDQGKRDLALRYDLTIPFAKVVAMNPNIRLPFKRYEIGKVFRDGPIKQGRFREFIQCDVDIVGVESVMAEAELMSMAFELFQTLNLEVTIQYNNRKLLNGILQAINIPTELTSDVILSLDKIEKIGIDGVRKDVLERGISEEMADTICNTVLSCLQLSIADFKEAFNNPLVADGVNELQQLQQYLIALGINENTIFNPFLARGLTMYTGTVYEIFLKDGSITSSIGSGGRYDNIIGAFRGDDMSYPTVGISFGLDVIYTALSQKETISST | not failed
5 | MTTVAVSSLPQGTSVTLRNVTKSFGTTKVLNGLDLNIHSGELVALLGPSGCGKSTLLRIIAGFEAADQGSVLLDDVDVSGVPTNRRDIGLVFQAYSLFPHLNAVENVMYGLSIRHVAKTEAKSSAVELLASVGLADYADRYPAQLSGGQQQRVALARALATKPRVLLLDEPLSALDAKVRVQLRDEIRALQLETHTTTIMVTHDQEEALVMADRIAVMYNGRFEQVGTPAEIYHSPATAFVAGFVGSMNVLPGVLSTDGTAQTIGCRVPVHAAAGAATLNPGPVDVFVRPEELRLQIANDDLNDHDAVLGTVTSTVLRGAFTSVMVAMGDGLHLRVDLPSKDAQLFTPGCSVMVRIADEPMLCTARRVECVA | failed
6 | MKRKVQVKNITIGEGRPKICVPIIGKNKKDIIKEAKELKDACLDIIEWRVDFFENVENIKEVKEVLYELRSYIHDIPLLFTFRSVVEGGEKLISRDYYTTLNKEISNTGLVDLIDVELFMGDEVIDEVVNFAHKKEVKVIISNHDFNKTPKKEEIVSRLCRMQELGADLPKIAVMPQNEKDVLVLLEATNEMFKIYADRPIITMSMSGMGVISRLCGEIFGSALTFGAAKSVSAPGQISFKELNSVLNLLHKSIN | not failed
7 | MAETAETINTTISSPPPESESSTTISAMTDPTSQEAASKDTDLTKEAESEKKPGGISLRIWPPTQKTRDAVLNRLIETLSTESILSKRYGTLKSDDATTVAKLIEEEAYGVASNAVSSDDDGIKILELYSKEISKRMLESVKARSNASVGNGSVEDANTDASEVSKDDAGPASEEEKSEA | failed
8 | MCSALVVAAPHSGSGKTTVTAAIARYHRVQGRKVTVFKVGPDFIDPMILRQASGELVYQLDLWLVGEQGCRALLHRAAMDSDLILIEGVMGLFDGTPSSADLAKYFNIPVLGVIDAKAMAQTFAAVTFGLAKFCEDLPFSGVIANRVNTERHAELLSVSLPKAFRFYGRIPKDDTITLPERHLGLVQAQELSDIDVQLDKAASHIANTGLTELPSQVEFFAQEDDNQENIIEGALAGTRIIIIRDSAFSFIYAANIAFLTQTGAELIYCSAMADVHLPDGDILYIPGGYPELYAEQLMNNVTFLSDIRAFSASNKPIVAECGGMLYLLEQLTDMEGQQFSMLGLMPGKATMQKKLAAIGSQWVPLPSFADAAEDSADNIMRGHSFHYSCAEIELEPSSQTTHHPSERAGEYVYQHNNILASYMHWYFPSNPSLTLRIFDKARYLLEHHHHHH | not failed
9 | MVGADLLCGSAWVPALWLNLCNLGVVVTLWQLLSRLPRMHRRMRSPHGVLSVFAACAAAAMVAASMAAVMAAPWFEQSLRATWLAWFSEQFSTGVLVLPVLLTAPSVRALVRGGAQPIRLAPLLVLLASLAFSIAFGGPGAIAFPIAALLWCAWTYSPFLVSLLTLTAGSTLIVAVAQNLMHFSVPQSEPGVTTLMSARLGIAMLVLGPLVVACVSQANRSLMARLAHQATVDHLTGVLTRSAFTRRANALLESRQQHAQALPLTLMMLDIDHFKSINDAHGHAVGDQVLRQFASTLQDQLHNDELIARLGGEEFVVILPGLAPERANFTAERLRRAIQDLHVTQADQRLQITVSIGVAGCDADMPAPSLDELLASADQALYRAKARGRNRVEQAEAQRLVI | failed
10 | MKSPFYRCQNTTSVEKGNSAVMGGVLFSTGLLGNLLALGLLARSGLGWCSRRPLRPLPSVFYMLVCGLTVTDLLGKCLLSPVVLAAYAQNRSLRVLAPALDNSLCQAFAFFMSFFGLSSTLQLLAMALECWLSLGHPFFYRRHITLRLGALVAPVVSAFSLAFCALPFMGFGKFVQYCPGTWCFIQMVHEEGSLSVLGYSVLYSSLMALLVLATVLCNLGAMRNLYAMHRRLQRHPRSCTRDCAEPRADGREASPQPLEELDHLLLLALMTVLFTMCSLPVIYRAYYGAFKDVKEKNRTSEEAEDLRALRFLSVISIVDPWIFIIFRSPVFRIFFHKIFIRPLRYRSRCSNSTNMESSL | failed
11 | MNFIQSNLNNLLAIAWFALCWGGYTRYAIWKGRDTACLASVLHLYREDWMRRMLLRDNRIADASVIGNLERNASFFASSTLIILAGILTVLGASDRALSLLADLPLVQQTSQGMSEIKLLCLAMVFVYAFFTFSWCMRQYNFAAVLVGSAPMIGERLVNELERKAFASRAARVLSLAANQFNLGLRSYYFGMAMLSWFISPWLFMAMSVGVVLILYRREFHSDVLDVMVFTPTESVLSEPAKESSVVSN | failed
12 | MADRQLLHTAHIPVRWGDMDSYGHVNNTLYFQYLEEARVAWFETLGIDLEGAAEGPVVLQSLHTYLKPVVHPATVVVELYAGRLGTSSLVLEHRLHTLEDPQGTYGEGHCKLVWVRHAENRSTPVPDSIRAAIA | not failed
13 | MFLSRPLVRIASAADRFLHGETEVKIPVKHDDEIGRLARAFNYLSEEIVRLTRKEEWLREVLSSIREAIIVTNASGEIVLANPAASRLFMIEAARKRSIPVTNIEDAAMRELFERVQKRQSGIYNEELTAMTSKGKRTLKVTAVPVMRRGALFDGTVLVINDVTRLRNLERTRRDFVSSVSHELRTPLASIKGYTETLLEGAMNDPENATAFLNIIHQEAEQLTALVNDVLDLSRIESGKIAYSFEPVDVKPQLEKTAALFEPAAARKGVRIELNAPEGLPAVLADRSYFDIVVRNLIDNAIKYVDAESGRVRVSAYATGDSVSIEVADNGIGIPQADLDRIFERFYRVDKARSRELGGTGLGLSIVKHIVLAHKGKVEVRSRINRGTTFTVTLPVAGA | failed
14 | MSLFPGDIEELARRIITDFTPLGLMVSTAESCTGGLIAGALTEIAGSSAVVDRGFVTYTNDAKRDMLGVGTETLTTFGAVSRQTALQMAHGALYRSRANFAVAVTGIAGPGGGSAEKPVGLVHLATKARNGNVLHHEMRYGDIGRTEIRLATVRTALEMLIALNQAGSV | not failed
15 | MPKERVDVLAYKQGLFETREQAKRGVMAGLVVNVINGERYDKPGEKIDDGTELKLKGEKLRYVSRGGLKLEKALAVFNLSVEDMITIDIGASTGGFTDVMLQNGAKLVYAVDVGTNQLVWKLRQDDRVRSMEQYNFRYAEPVDFTEGLPSFASIDVSFISLNLILPALAKILVDGGQVVALVKPQFEAGREQIGKNGIVRESSIHEKVLETVTAFAVDYGFSVKGLDFSPIQGGHGNIEFLAHLEKTDSPQNDVPTSIKEVVAQAHKEFKKNEEERSFGVNPKDCPRK | not failed
16 | MGNHFSKLGFVLAALGSAIGLGHIWRFPYMTGVSGGGAFVLLFLFLSLSVGAAMFIAEMLLGQSTQKNVTEAFKELDINPKKRWKYAGLLLVSGPLILTFYGTILGWVLYYLVSVSFNLPNNIQESEQIFTQTLQSIGLQSIGLFSVLLITGWIVSRGIKEGIEKLNLVLMPLLFATFFGLLFYAMSMDSFSKAFHFMFDFKPKDLTSQVFTYSLGQVFFSLSIGLGINITYAAVTDKTQNLLKSTIWVVLSGILISLVAGLMIFTFVFEYGANVSQGTGLIFTSLPVVFGQMGAIGILVSILFLLALAFAGITSTVALLEPSVMYLTERYQYSRFKVTWGLVALIFVVGVVLIFSLHKDYKDYLTFFEKSLFDWLDFASSTIIMPLGGMATFIFMGWVLKKEKLRLLSVHFLGPKLFATWYFLLKYITPLIVFSIWLSKIY | failed
17 | MNQKMIIGNAEAICLPELGITHLEARIDTGAQTSSLHVDNIDCFEKDGQSYVAFDLHPDVYHLEQVVRCTAKLKANRKVKSSNGTFEHRCVITTMLRLGDQEWPIDITLTNREKMTYMMLLGRQGMADKVLVDPSQSHLLAS | not failed
18 | MNLKTLKIFIEGYGCTLNTADTNIINNSIKKFKNFIIVNNLDDADIVVINTCVVRLETEHKMISRINYIKSLNKYIVIAGCMPKALKKKAEKINPDILIMPKEAHLIGDIIYNYFKNNIGNENNADNKIEDSMKCGELPHNQASSSGNYNDIDNKLTQLKPNNLIMPLPISEGCTGKCTYCIVKIARGRLASYNPDKIINKAKEFVDNGVKQMLITSQDTACYGFDKNTTLPTLLNEICQIKGDFNIRIGMMHAKNVPMIIDELIDRYKDDKITKFFHLPIQSGDDDVLRAMKREYTVDEYMDIAMEFKRKIKDLNFNTDVIVGFPTETEDNFNNTIELLKKLKPDAIHGAKYTQRKGTEADRLKQVDTKIRKERMKILDKLRKEFSLENHEKYVGKIMPCLIVGKNEGITHNCKTVKFENCEDVKIGEFRKIKIKEALTFGLYGEIIN | failed
19 | MKIITIEEHFESEVITNEINKVTGNLVSGQVSPEMFQYMQKELPSAMEMQDTEKRLAFMDQHGIDMQVLSYGNSSPQNLGPKISVALCKRANDELAKVIQQNPTRFAGFAVLPVGSPEDAAIELKRAVEELGFKGALVKGQFENKYFDNSFYYPIFEMAEKLDVPISFHPSFIPEPITEQYFASDAWSDVVTGVFSSAGFGWHMDVGIQVVRMILSGIFDKLPNLKIITGHLGEMVPMFLNRMDDTLGHWTTLERKISDYYRTNVYVTPSGLLYKNEWKFLLNELDENHLIYALDYPFVKTENAGTFLDTLDLTDEVKAKIAHENAEKLLHL | not failed
20 | MVTDADYRELRGATETPREAVVVGLAGEVGLTSAEIPRVRPCDVAPHDHDGVTHYFLAVPGADGGSDRDAYLPPAVERDIRRRADAAGLADDDPLVDVSARRVQTLVNAVAGRTDTAGLDGVAAQDLRSFFARRLLTGAGVDPRVVAAVGGWSRLASLDQYAAVDALEHHHHHH | failed
21 | MSAEAADREAVSGSRPCTPPQTSWFEFLLNPSLLEQHLHSPHPDPSPVQLIFQFLEQASKPSVNEQNQVQPPVDNRRNRTLKLMALKVAAHLRWDLNMLEKGLTIPVLNMLLNELLCVSHVPPGVKHVDLDLSSLPPTTAMAVVFYNRWAIRTIVLSSFPEKQTKPGPHQLNMMNMLQQEKEHTENILSVLREQATDSIMVLEGALSIKKDFYIHL | not failed
